This is an account of results in publication PMC12469269, “Investigating SMR Peptide Interactions with Breast Cancer-Associated Proteins” (International Journal of Molecular Sciences, 2025).

Test [1] concerns the target Recombinant Human Vimentin Protein, CF (human) (UniProt P08670). The test is described as follows: SPR.
In test [2] the target is Recombinant Human GRP75/HSPA9B/Mortalin His Protein (human) (UniProt P38646). The test is described as follows: SPR. For orientation: Surface plasmon resonance follows binding to a sensor surface in real time, without labels.
Recombinant Human GRP75/HSPA9B/Mortalin His Protein (human), sequence (P38646 47-679): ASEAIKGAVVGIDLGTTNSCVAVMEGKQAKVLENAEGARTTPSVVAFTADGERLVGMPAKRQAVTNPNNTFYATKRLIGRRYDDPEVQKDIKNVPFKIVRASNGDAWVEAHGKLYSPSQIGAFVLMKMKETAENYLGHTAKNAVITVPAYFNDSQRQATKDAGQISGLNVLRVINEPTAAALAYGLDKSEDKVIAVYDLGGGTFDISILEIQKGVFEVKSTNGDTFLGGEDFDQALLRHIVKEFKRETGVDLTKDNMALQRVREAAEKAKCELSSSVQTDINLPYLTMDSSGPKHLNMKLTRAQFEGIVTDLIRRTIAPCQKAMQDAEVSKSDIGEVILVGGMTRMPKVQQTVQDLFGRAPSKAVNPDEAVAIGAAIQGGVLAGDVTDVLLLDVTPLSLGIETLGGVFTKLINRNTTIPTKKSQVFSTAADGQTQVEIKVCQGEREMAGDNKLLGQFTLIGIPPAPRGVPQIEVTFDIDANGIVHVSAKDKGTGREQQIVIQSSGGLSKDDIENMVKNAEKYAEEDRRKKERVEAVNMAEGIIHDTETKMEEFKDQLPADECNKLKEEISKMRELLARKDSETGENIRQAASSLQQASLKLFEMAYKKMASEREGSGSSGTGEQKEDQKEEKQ

In general, Kd refers to the concentration at which binding is half-saturated.

Recombinant Human Vimentin Protein, CF (human), sequence (P08670 whole entry): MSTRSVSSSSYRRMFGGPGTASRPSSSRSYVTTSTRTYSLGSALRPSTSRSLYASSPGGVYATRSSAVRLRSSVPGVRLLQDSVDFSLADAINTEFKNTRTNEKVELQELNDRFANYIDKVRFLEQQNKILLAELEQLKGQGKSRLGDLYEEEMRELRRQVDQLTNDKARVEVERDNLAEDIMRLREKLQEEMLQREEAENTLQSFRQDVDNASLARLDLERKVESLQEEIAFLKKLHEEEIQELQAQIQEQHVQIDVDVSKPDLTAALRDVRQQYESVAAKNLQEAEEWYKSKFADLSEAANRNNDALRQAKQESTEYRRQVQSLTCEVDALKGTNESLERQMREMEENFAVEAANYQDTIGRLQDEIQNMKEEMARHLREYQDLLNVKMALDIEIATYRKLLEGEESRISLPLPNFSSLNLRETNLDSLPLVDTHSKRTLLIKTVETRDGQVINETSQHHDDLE

Take SMRwt peptide: the Kd in test [1] stood at 6.63 µM; in test [2] it was 20.7 µM.
